# Laboratory results published in article PMC8452682, “Unwinding of a DNA replication fork by a hexameric viral helicase” (Nature Communications, 2021).
# B1: Bovine papillomavirus (BPV) E1 helicase, full-length, wild type (enzyme)
# chain: MANDKGSNWDSGLGCSYLLTEAECESDKENEEPGAGVELSVESDRYDSQDEDFVDNASVFQGNHLEVFQALEKKAGEEQILNLKRKVLGSSQNSSGSEASETPVKRRKSGAKRRLFAENEANRVLTPLQVQGEGEGRQELNEEQAISHLHLQLVKSKNATVFKLGLFKSLFLCSFHDITRLFKNDKTTNQQWVLAVFGLAEVFFEASFELLKKQCSFLQMQKRSHEGGTCAVYLICFNTAKSRETVRNLMANTLNVREECLMLQPAKIRGLSAALFWFKSSLSPATLKHGALPEWIRAQTTLNESLQTEKFDFGTMVQWAYDHKYAEESKIAYEYALAAGSDSNARAFLATNSQAKHVKDCATMVRHYLRAETQALSMPAYIKARCKLATGEGSWKSILTFFNYQNIELITFINALKLWLKGIPKKNCLAFIGPPNTGKSMLCNSLIHFLGGSVLSFANHKSHFWLASLADTRAALVDDATHACWRYFDTYLRNALDGYPVSIDRKHKAAVQIKAPPLLVTSNIDVQAEDRYLYLHSRVQTFRFEQPCTDESGEQPFNITDADWKSFFVRLWGRLDLIDEEEDSEEDGDSMRTFTCSARNTNAVD
# notes: Replication protein E1 of bovine papillomavirus (BPV), full length; C-terminal acidic tail is residues 579-605; Hexamer assembled on a synthetic DNA replication fork (30 bp dsDNA, 3' T20, 13-base 5' tail) without nucleotide; also called E1 protein; subunits A-F of the E1RF complex; source: expressed as a GST fusion protein, purified (glutathione sepharose, thrombin cleavage, cation and anion …)
# Molecular target: the molecule itself
# Test: cryo-EM structure; E1RF complex: 60 uM E1 assembled with 10 uM fork DNA, no nucleotide, purified by gel filtration (10 mM Tris-Cl pH 8.0, 225 mM NaCl, 2 mM DTT, 0.1 mM PMSF, 1 mM EDTA); hexamer on DNA; Titan Krios 300 kV, K3
protein,measurement,value
B1,stoichiometry N,6
